Each block holds one substance with its values, some of them ahead of it.
Columns and labels:
[1] = target: SRP (Escherichia coli) (UniProt P0AGD7); conditions: cited from earlier work
[2] = target: SRP(MDCC): signal recognition particle with MDCC at position 235 in the G domain of Ffh (Escherichia coli) (UniProt P0AGD7); assay: other fluorescence titration; equilibrium titration monitored by FRET; SRP(MDCC) 25 nM titrated with FtsY(Bpy); SRP bound to 70S ribosomes (500 nM); buffer A, 25 °C; apparent
[3] = target: SRP(MDCC): signal recognition particle with MDCC at position 235 in the G domain of Ffh (Escherichia coli) (UniProt P0AGD7); assay: stopped-flow FRET kinetics; Lep50-RNC (30 nM) in complex with SRP(MDCC) (500 nM) rapidly mixed with FtsY(Bpy) (1 µM); no SecYEG
[4] = target: SRP(MDCC): signal recognition particle with MDCC at position 235 in the G domain of Ffh (Escherichia coli) (UniProt P0AGD7); assay: other fluorescence titration; as a22 (Lep75-RNC), with SecYEG in nanodiscs (300 nM); apparent
[5] = target: SRP(MDCC): signal recognition particle with MDCC at position 235 in the G domain of Ffh (Escherichia coli) (UniProt P0AGD7); assay: other fluorescence titration; SRP(MDCC) 25 nM titrated with FtsY(Bpy); SRP bound to Lep50-RNC (10 nM); buffer A, 25 °C; apparent
[6] = target: SRP(MDCC): signal recognition particle with MDCC at position 235 in the G domain of Ffh (Escherichia coli) (UniProt P0AGD7); assay: stopped-flow FRET kinetics; 70S ribosomes (50 nM) in complex with SRP(MDCC) (500 nM) rapidly mixed with FtsY(Bpy) (1 µM); acceptor (Bpy) fluorescence; no SecYEG
[7] = target: (Bpy)Lep50-RNC: stalled ribosome-nascent-chain complex with a nascent chain of leader peptidase (Lep) of 50 amino acids, Bodipy FL at the N-terminal methionine (Escherichia coli) (UniProt P00803); assay: other fluorescence titration; as a5, in the presence of FtsY (1 µM) and SecY39EG in nanodiscs; apparent
[8] = target: (Bpy)Lep75-RNC: stalled ribosome-nascent-chain complex with a nascent chain of leader peptidase (Lep) of 75 amino acids, Bodipy FL at the N-terminal methionine (Escherichia coli) (UniProt P00803); assay: as above
[9] = target: Lep50- or Lep75-RNC; assay: other fluorescence titration; as a5, in the presence of saturating amounts of SecYEG in nanodiscs; apparent
[10] = target: (Bpy)Lep50-RNC: stalled ribosome-nascent-chain complex with a nascent chain of leader peptidase (Lep) of 50 amino acids, Bodipy FL at the N-terminal methionine (Escherichia coli) (UniProt P00803); assay: other fluorescence titration; as a5, RNC in complex with FtsY (1 µM) and SecYEG in nanodiscs (increasing to saturating); apparent
[11] = target: (Bpy)Lep75-RNC: stalled ribosome-nascent-chain complex with a nascent chain of leader peptidase (Lep) of 75 amino acids, Bodipy FL at the N-terminal methionine (Escherichia coli) (UniProt P00803); assay: as above
[12] = target: Lep50- or Lep75-RNC; assay: other fluorescence titration; equilibrium titration monitored by FRET; (Bpy)Lep-RNC 4 nM titrated with SRP(Alx), GDPNP 500 µM, buffer A, 25 °C; apparent; without SecYEG
[13] = target: FtsY (Escherichia coli) (UniProt P10121); conditions: cited from earlier work

Chain of SecYEG (P0AGA2 whole entry): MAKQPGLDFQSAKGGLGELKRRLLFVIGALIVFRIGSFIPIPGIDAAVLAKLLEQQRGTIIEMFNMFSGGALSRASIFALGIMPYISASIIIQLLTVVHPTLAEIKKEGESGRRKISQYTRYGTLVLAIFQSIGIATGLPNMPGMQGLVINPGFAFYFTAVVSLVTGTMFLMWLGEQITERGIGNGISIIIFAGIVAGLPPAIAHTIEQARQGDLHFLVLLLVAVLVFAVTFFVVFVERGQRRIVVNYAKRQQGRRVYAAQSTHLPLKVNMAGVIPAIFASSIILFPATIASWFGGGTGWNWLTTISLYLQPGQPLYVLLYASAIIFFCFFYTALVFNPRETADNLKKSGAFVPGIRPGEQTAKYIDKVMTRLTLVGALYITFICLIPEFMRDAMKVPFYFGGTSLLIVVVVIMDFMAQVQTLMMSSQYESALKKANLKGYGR
Chain of SecYEG (P0AG96 whole entry, further chain): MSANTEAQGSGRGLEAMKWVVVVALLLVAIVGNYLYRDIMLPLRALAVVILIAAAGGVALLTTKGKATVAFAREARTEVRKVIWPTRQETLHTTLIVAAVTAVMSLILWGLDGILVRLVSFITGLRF
Chain of SecYEG (P0AG99 whole entry, further chain): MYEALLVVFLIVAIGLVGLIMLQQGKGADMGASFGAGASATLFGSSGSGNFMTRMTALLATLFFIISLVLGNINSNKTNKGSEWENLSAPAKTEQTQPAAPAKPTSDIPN
Chain of FtsY (P10121 2-497): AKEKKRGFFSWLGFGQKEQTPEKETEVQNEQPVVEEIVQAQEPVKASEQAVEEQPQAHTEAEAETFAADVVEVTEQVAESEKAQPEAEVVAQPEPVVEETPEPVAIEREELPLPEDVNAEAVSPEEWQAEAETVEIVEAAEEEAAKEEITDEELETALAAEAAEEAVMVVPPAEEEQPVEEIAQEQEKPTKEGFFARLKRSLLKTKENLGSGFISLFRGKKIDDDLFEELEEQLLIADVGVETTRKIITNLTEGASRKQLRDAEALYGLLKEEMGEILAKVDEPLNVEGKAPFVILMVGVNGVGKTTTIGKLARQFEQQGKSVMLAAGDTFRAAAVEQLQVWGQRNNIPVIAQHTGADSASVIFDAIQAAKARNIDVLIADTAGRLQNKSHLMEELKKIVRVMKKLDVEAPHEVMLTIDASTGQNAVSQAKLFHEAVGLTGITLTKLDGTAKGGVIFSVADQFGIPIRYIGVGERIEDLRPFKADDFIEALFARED

Substance: FtsY (from UniProt P10121)
Kd [1]: 500 nM

Kd [2]: 50 nM
average half-life time of association [3]: 1 s
Kd [4]: 40 nM
fold increase of the appKd with SecYEG against without SecYEG [4]: 10 fold
Kd [5]: 5 to 10 nM
half-life time of association [6]: 15 s
Substance: FtsY(Bpy): SRP receptor FtsY with Bodipy FL at position 487 in the N domain (from UniProt P10121 1-497)

fold change of the apparent affinity with SecY39EG–FtsY [7]: < 5 fold
fold change of the apparent affinity with SecY39EG–FtsY [8]: < 5 fold
Kd [9]: 15 to 20 nM
Kd [10]: 50 nM
α (factor by which the appKd of SRP binding is increased by SecYEG–FtsY) [11]: 4
Kd [12]: 3 to 4 nM
Substance: SRP(Alx): signal recognition particle with Alexa555 at position 430 in the M domain of SRP protein Ffh (from UniProt P0AGD7 1-453) (complex)

Substance: SecYEG (from UniProt P0AGA2)
Kd [13]: 200 nM

Reference: paper PMC6028451
